According to patent US20250376505A1:

Target: VP1 pentamer of BKV genotype I (truncated VP1, residues 31 to 301, Dunlop sequence with Cys 104 replaced by Ser) (BK virus genotype I (Dunlop)) (UniProt P03088)
Assay: ELISA, coated VP1 pentamer

VP1 pentamer of BKV genotype I (truncated VP1, residues 31 to 301, Dunlop sequence with Cys 104 replaced by Ser) (BK virus genotype I (Dunlop)), sequence (P03088 31-301): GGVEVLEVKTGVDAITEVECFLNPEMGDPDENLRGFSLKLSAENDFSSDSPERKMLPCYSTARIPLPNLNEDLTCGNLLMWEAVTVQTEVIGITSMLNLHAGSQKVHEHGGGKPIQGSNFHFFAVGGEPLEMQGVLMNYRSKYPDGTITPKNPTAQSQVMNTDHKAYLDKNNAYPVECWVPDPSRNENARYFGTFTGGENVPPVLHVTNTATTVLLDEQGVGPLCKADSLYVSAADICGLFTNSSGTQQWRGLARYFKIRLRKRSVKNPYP

B1: D7P6 (antibody, V domains shown)
VH: EVQLLESGGGLVQPGGSLRLSCAASGFPFSSYAMSWVRQAPGKGLEWVSGITGSASGTYYADSVKGRFTISRDNSKNTLYLRMNSLRAEDTAVYYCAKEGAYSYDYWYFDLWGRGTLVTVSS
VL: EIVLTQSPGTLSLSPGERATLSCRASQSVSGSYLAWYQQKPGQTPRLLIYGASSRATGIPDRFSGSGSGTDFTLTINRLDPEDFGVYYCQQYGSLVTFGGGSKVEIK
Q: Which EC50 does the source give for B1 here?
A: 6 µg/mL

B2: C11P7 (antibody, V domains shown)
VH: EVQLVESGGGLVQPGGSLKLSCAASGFSLSNSEVHWVRQASGKGLEWIGRVRSRANRHATGYTESVNGRFTVSRDDSKNTASLQLESLKIEDTAVYYCTGVRGVISRYFAMDVWGQGTTVTVSS
VL: QSALTQPASVSGSPGQSITISCTGTSSDVGAYNYVSWYRLRPGKDPHLIIYDVSHRPAGVSNRFSGSKSGNTASLTISGLQAEDEDEYYCCSYAHRGTPLFGGGTKLTVL
Q: For B2, which EC50 is on record?
A: 6 µg/mL

B3: B9P6 (antibody, V domains shown)
VH: EVQLVESGGGLVQPGGSLRLSCAASGFTFRSYTMDWVRQAPGKGLEWVSCISGSSNHKYYADSVRGRFTISRDNAKNSLFLQMNSLRAEDSAVYYCAREDDILTPLYGMDVWGPGTTVTVSS
VL: EIVLTQSPDTLSLSPGARATLSCRASQSVRSNYLAWYQQKPGQAPRLLIYGASSRATAIPDRFSGSGSGTDFTLTITRLEPEDFAVYYCHQYGSSPRTFGQGTKVEIK
Q: With B3 as the binder, how does the EC50 read?
A: 0.12 µg/mL

B4: B2P8 (antibody, V domains shown)
VH: QVQLQESGPGLVKPSETLSLTCTVSGGSIRNSYWSWIRQPPGKGLEWIGYIYYTGTTNSNPSLKSRVTISVHMSQNQISLKLNSVTPADTAVYYCAQGGGSGDLHYWGQGTLVTVSS
VL: EIVLTQSPDTLSLSPGARATLSCRASQSVRSNYLAWYQQKPGQAPRLLIYGASSRATAIPDRFSGSGSGTDFTLTITRLEPEDFAVYYCHQYASSPRTFGQGTKVEIK
Q: Which EC50 does the source give for B4 here?
A: 10 µg/mL

B5: G11P1 (antibody, V domains shown)
VH: EVQLVESGGGLVQPGGSLRLSCAASGFTFRSYSMDWVRQAPGKGLEWVSYISGSSNQKYYTDSVRGRFTISRDNAKNSLFLQMNSLRAEDSAVYYCAREDDILTPLYGMDVWGPGTTVTVSS
VL: EIVLTQSPDTLSLSPGARATLSCRASQSVRSNYLAWYQQKPGQAPRLLIYGASSRATAIPDRFSGSGSGTDFTLTITRLEPEDFAVYYCHQYASSPRTFGQGTKVEIK
Q: Which EC50 does the source give for B5 here?
A: 0.7 µg/mL

B6: E11P6 (antibody, V domains shown)
VH: EVQLVESGGGLVQPGGSLRLSCAASGFTFRSYSMDWVRQAPGKGLEWVSYISGSSNQKYYTDSVRGRFTISRDNAKNSLFLQMNSLRAEDSAVYYCAREDDILTPLYGMDVWGPGTTVTVSS
VL: EIVLTQSPDTLSLSPGARATLSCRASQSVRSNYLAWYQQKPGQAPRLLIYGASSRATAIPDRFSGSGSGTDLTLTITRLEPEDFAVYYCHQYASSPRTFGQGTKVEIK
Q: B6 was tested. Which EC50 did it give?
A: 0.6 µg/mL

B7: G5P1 (antibody, V domains shown)
VH: QVQLQESGPGLVKPSGTLSLTCTVSGGSIRNSYWSWIRQPPGKGLEWIGYIYYTGTTNSNPSLKSRVTISVHMSRNQISLKLNSVTPADTAVYYCAQGGGSGDLHYWGQGTLVTVSS
VL: NFMLTQPASVSGSPGQSITISCTGTRSDVGGYNYVSWYQQHPGKAPKLMIYDISSRPSGVSNRFSASKSGNTASLTISGLQAEDEADYYCISFATGYTWVFGGGTRLTVL
Q: With B7 as the binder, how does the EC50 read?
A: 7 µg/mL

B8: E7P5 (antibody, V domains shown)
VH: QVQLQESGPGLVKPSETLSLTCTVSGGSIRNSYWSWIRQSPGKGLEWIGYIYYTGSTNSNPSLKSRLTVSVHMSQNQISLKLNSVTPADTAVYYCAQGGGSGDLHYWGQGTLVTVSS
VL: QSALTQPASVSGSPGQSITISCTGTRSDVGGYNYVSWYQQHPGKAPKLIIYDISSRPSGVSNRFSASKSGNTASLTISGLQAEDEADYYCISFATGYTWVFGGGTSLTVL
Q: How did the EC50 turn out when B8 was run?
A: 0.15 µg/mL

B9: B8P7 (antibody, V domains shown)
VH: QVQLQESGPGLVRPSETLSLTCTVSGGSISPYYWNWIRQPPGKGLEWIGYIYYSGNTKYNPSLKSRVTISVDTSKNQFSLKLSSVSAADTAVYYCARDSCSGTCYLGDNWFDPWGQGTLVTVSS
VL: QSVLTQPPSVSGAPGQRVTISCTGSSSNIGANNDVHWYQHLPGTAPKLLIYGNNHRPSGVPDRFSGSKSGTSASLAITGLQAEDEADYYCQSYDSSLSTSKVFGGGTKLTVL
Q: How did the EC50 turn out when B9 was run?
A: 0.05 µg/mL

B10: C4P6 (antibody, V domains shown)
VH: QVQLQESGPGLVRPSETLSLTCTVSGGSISPYYWNWIRQPPGKGLEWIGYIYYSGNTKYNPSLKSRVTISVDTSKNQFSLKLSSVSAADTAVYYCARDSCSGTCYLGGNWFDPWGQGTLVTVSS
VL: QSVLTQPPSVSGAPGQRVTISCTGSSSNIGANNDVHWYQHLPGTAPKLLIYGNNHRPSGVPDRFSGSKSGTSASLAITGLQAEDEADYYCQSYDSSLSTSKVFGGGTKLTVL
Q: How did the EC50 turn out when B10 was run?
A: 1.5 µg/mL

B11: B10P1 (antibody, V domains shown)
VH: EVQLSESGGGLVQPGGSLRLSCAASGFTFSSYAMSWVRQAPGKGLEWVSSLTGSGGSTYYRDSVKGRFTIFRDNSKKTLYMQMNSLRAEDTAVYYCAKEGAYSYDFWYFDLWGRGTLVTVSS
VL: EIVLTQSPGTLSLSPGERATLSCRASQTVSGNYLAWYQQKPGQSPSLLIYGASSRATGIPDRFTGSGSGTDFTLTISRLEPADFAVYYCQQYGRPLTFGGGTKVDIK
Q: Which EC50 does the source give for B11 here?
A: 7 µg/mL

B12: C4P7 (antibody, V domains shown)
VH: EVQLLESGGGLVQPGGSLRLSCAASGFTFSSYAMSWVRQAPGKGLEWVSSLTGSGGSTYYRDSVKGRFTIFRDNSKKTLYMQMNSLRAEDTAVYYCAKEGAYSYDFWYFDLWGRGTLVTVSS
VL: EIVLTQSPGTLSLSPGERATLSCRASQTVSGNYLAWYQQKPGQSPSLLIYGASSRATGIPDRFTGSGSGTDFTLTISRLEPADFAVYYCQQYGRPLTFGGGTKVEIK
Q: How did the EC50 turn out when B12 was run?
A: 5 µg/mL
